This test concerns the target T1, flag–Lte1 (budding yeast, UniProt P07866 1-1435).
T1 sequence (looked up): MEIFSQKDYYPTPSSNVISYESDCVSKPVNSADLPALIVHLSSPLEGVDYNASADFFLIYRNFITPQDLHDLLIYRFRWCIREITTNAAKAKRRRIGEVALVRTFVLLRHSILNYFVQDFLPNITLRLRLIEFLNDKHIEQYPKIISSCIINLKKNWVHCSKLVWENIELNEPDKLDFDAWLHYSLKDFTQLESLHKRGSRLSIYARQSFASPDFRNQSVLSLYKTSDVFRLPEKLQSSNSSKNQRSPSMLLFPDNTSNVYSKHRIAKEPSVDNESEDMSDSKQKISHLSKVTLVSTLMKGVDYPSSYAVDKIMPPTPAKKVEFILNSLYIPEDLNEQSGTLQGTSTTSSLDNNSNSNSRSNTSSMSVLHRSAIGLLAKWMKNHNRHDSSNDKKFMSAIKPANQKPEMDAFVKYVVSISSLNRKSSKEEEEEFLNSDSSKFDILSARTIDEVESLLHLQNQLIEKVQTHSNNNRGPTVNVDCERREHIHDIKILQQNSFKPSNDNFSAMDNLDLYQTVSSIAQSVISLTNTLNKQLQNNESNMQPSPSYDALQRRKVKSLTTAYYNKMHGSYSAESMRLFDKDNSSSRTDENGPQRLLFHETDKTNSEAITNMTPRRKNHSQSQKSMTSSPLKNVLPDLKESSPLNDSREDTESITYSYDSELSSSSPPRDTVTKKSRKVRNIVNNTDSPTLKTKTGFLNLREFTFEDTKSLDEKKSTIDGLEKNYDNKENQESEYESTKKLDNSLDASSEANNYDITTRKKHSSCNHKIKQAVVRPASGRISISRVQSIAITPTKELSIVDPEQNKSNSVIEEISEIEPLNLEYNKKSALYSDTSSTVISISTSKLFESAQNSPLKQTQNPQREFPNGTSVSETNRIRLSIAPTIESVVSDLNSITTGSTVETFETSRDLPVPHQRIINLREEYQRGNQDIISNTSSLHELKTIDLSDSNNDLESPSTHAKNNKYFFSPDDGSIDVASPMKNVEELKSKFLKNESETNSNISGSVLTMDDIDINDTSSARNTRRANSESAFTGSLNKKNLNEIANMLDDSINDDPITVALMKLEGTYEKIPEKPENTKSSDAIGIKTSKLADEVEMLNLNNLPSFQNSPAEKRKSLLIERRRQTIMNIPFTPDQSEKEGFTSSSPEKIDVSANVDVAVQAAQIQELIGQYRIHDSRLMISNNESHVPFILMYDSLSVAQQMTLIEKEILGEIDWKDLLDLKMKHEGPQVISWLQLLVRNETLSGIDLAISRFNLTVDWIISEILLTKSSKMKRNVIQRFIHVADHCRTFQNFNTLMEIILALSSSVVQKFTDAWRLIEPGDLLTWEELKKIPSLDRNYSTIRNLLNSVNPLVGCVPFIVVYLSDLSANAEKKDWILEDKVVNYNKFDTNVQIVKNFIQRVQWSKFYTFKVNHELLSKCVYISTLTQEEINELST
Nature of the test: pull-down.

Data on 1 molecule can be found in article PMC2172978 (The Journal of Cell Biology, 2003).

B1: Ras2 protein purified from the insect cells (natural protein, budding yeast, UniProt P01120 1-322, looked up)
chain: MPLNKSNIREYKLVVVGGGGVGKSALTIQLTQSHFVDEYDPTIEDSYRKQVVIDDEVSILDILDTAGQEEYSAMREQYMRNGEGFLLVYSITSKSSLDELMTYYQQILRVKDTDYVPIVVVGNKSDLENEKQVSYQDGLNMAKQMNAPFLETSAKQAINVEEAFYTLARLVRDEGGKYNKTLTENDNSKQTSQDTKGSGANSVPRNSGGHRKMSNAANGKNVNSSTTVVNARNASIESKTGLAGNQATNGKTQTDRTNIDNSTGQAGQANAQSANTVNNRVNNNSKAGQVSNAKQARKQQAAPGGNTSEASKSGSGGCCIIS
For the molecule B1, the binding result is recorded as “binds”.
